{"source": "patent US11072592B2", "about": "“Small molecules that enable cartilage rejuvenation” (The Regents of the University of California, priority 2015, dated 2021)", "key": {"pSTAT3 and MYC [1]": {"tested_on": "pSTAT3 and MYC", "test": "Western blot of pSTAT3 and MYC in adult pig articular chondrocytes", "type": "cell-based", "conditions": "adult pig articular chondrocytes; for ability of both LIF and RCGD 423 to induce increases in pSTAT3 and MYC: inhibitor plus LIF or RCGD 423; for levels of MYC / levels of pSTAT3: treated vs untreated, relative to histone H3", "excerpt": "Only early passages of chondrocytes (passage 0-2) were used for experimentation to avoid de-differentiation and loss of cartilage phenotype (Wu et al., 2014). Cartilage explants were made using 1, 2 or 8 mm biopsy punch and wet weight of each explant determined prior to experimentation. For cell isolation cartilage tissue was digested as described previously (Wu et al., 2015). Postnatal paraffin embedded joint and growth plate specimens were kindly donated by Dr Marcel Karperien from the University of Twente (Netherlands) and Dr Nick Bernthal from University of California Los Angeles. All donated material was anonymous and carried no personal identifiers. Cell culture reagents were purchased from Life Technologies, Inc. (Grand Island, N.Y.). Growth factors LIF, OSM, IL-6, TNF-α, IL-1β were purchased from Life Technologies, Inc (Grand Island, N.Y.). STATTIC, 10058-F4, SCl44 hydrochloride, and CP-690550 were purchased from Sigma Aldrich (St. Louis, Mo.). RCGD 423 (N-(4-Bromophenyl)-4-phenyl-1,3-thiazol-2-amine) was synthesized and provided by MolPort (Riga, Latvia). Fetal, adult and pig chondrocytes were cultured in DMEM F12 medium containing 10% (vol/vol) fetal bovine serum and 1% Penicillin-Streptomycin (vol/vol) at 37° C. in a humidified atmosphere of 95% aid and 5% CO2. Media was replenished with DMEM F12 medium containing 1% (vol/vol) fetal bovine serum and 1% Penicillin-Streptomycin (vol/vol) once treatments were added. For 3-dimensional (3D) cell cultures adult human articular chondrocytes were incubated with or without RCGD 423 using 10% solution of Mebiol® hydrogel from Cosmo Bio (Carlsbad, Calif.) in X-vivo 15 serum free medium from Lonza (Walkersville, Md.) as described previously (Wu et al., 2014).\n(§1) Treated and non-treated ells were lysed in RIPA Lysis and Extraction Buffer (Pierce, Rockford, Ill.) containing protease inhibitors (Pierce) followed by sonication with a 15-second pulse at a power output of 2 using the VirSonic 100 (SP Industries Company, Warminster, Pa.). Protein concentrations were determined by BCA protein assay (Pierce). Proteins were resolved with SDS-PAGE utilizing 4-15% Mini-PROTEAN TGX Precast Gels and transferred to Trans-Blot Turbo Transfer Packs with a 0.2-μm pore-size nitrocellulose membrane. The SDS-PAGE running buffer, 4-15% Mini-PROTEAN TGX Precast Gels, Trans-Blot Turbo Transfer Packs with a 0.2-μm pore-size nitrocellulose membrane were purchased from Biorad (Hercules, Calif.). Nitrocellulose membranes were blocked in 5% nonfat milk in 0.05% (v/v) Tween 20 (PBST) (Corning, Manassas, Va.). Membranes were then incubated with primary antibodies phospho-STAT3 (#9131), MYC (#5605), NF-κB p65 (#D14E12), pAKT (#9272) Histone 3 (#9715) from Cell Signaling, (Danvers, Mass.); MEK1/2 (ab70613) and p38 (ab795) from Abcam (Cambridge, Mass.) overnight. After washing in PBS containing 0.05% (v/v) Tween 20 (PBST), membranes were incubated with Goat anti-Rabbit IgG (H+L) Secondary Antibody (Thermo Scientific Rockford, Ill.). After washing, membranes were developed with the Clarity Western ECL Blotting Substrate (Hercules, Calif.)."}, "cartilage explants": {"tested_on": "cartilage explants", "test": "Cartilage explant culture: tissue expansion, COL2 and GAG content", "type": "cell-based, pig", "conditions": "cartilage explants/plugs in culture", "excerpt": "The same stimulatory effect was achieved after treatment of explants with CRMs identified in our small molecule screen. […] This can test if activation of p-STAT3 and c-MYC by selected small molecules CRM-398 and -423 can result in in situ expansion of articular cartilage tissue.\nMature articular cartilage is comprised of chondrocytes contained within lacunae surrounded by dense extracellular matrix. In order for a regenerative response to occur, proliferation, survival and migration must all proceed in concert. […] We designed two sets of experiments to assess the ability of RCGD 423 to operate in this capacity. First, RCGD 423 or cytokines implicated in the growth and differentiation of articular cartilage were incubated with small plugs of cartilage tissue; after 5 weeks, the amount of COL2 and glycosaminoglycans (GAGs) were determined.\nCartilage explants were washed with PBS and then directly digested or stored at […]. For digestion, explants were transferred in digestion buffer composed of 1 mg/mL proteinase K in Tris/Ethylene diamine tetra-acetic acid (EDTA) buffer (pH 7.6) containing 18.5 μg/mL iodoacetamide and 1 μg/mL pepstatin A) for 16-72 h at 56° C. After complete digestion the GAG content was spectrophotometrically determined with 1,9-dimethylmethylene blue chloride staining in the phosphate buffer with ethylene diamine tetra-acetic acid buffer (14.2 g/L Na2HPO4 and 3.72 g/L Na2EDTA, pH 6.5) using an Infinite M1000 Pro microplate reader (Tecan) at an absorbance of 520 nm with chondroitin sulfate as a standard. Amount of total DNA in explants was determined by a CyQuant DNA Kit (Molecular Probes by Life Technology) using Qubit 1.0 fluorometer (Invitrogen).\nCultured explants were first digested in testicular hyaluronidase (0.05% in 50 mM HEPES) for 2 hours at 37° C. 0.5M glacial acetic acid was added to digestion solution to maximize the collagen swelling and provide best pepsin access. Pepsin (250 μg/ml) was then used to further digest the pellets in combination with rotation and occasional gentle vortexing at 4° C. for 18-24 hours. Cold tris base and NaOH were added to the digestion solution to neutralize the acetic acid. Digestion solution was vigorously vortexed immediately, and subsequently rotated at 4° C. overnight to maximize collagen solubility. Tubes were centrifuged to separate undigested tissue and supernatant. Any undigested tissue was subjected to the digestion process again. All supernatants were combined for ELISA. Concentration of collagen II in the supernatant was measured by Type I/II Collagen Detection Kit (Chondrex, Inc, Redmond, Wash.), according to manufacturer's instruction and normalized either to DNA content or wet weight of the explants determined prior to experimentation."}, "[2]": {"tested_on": "MAPK, AKT, NF-κB pathways", "test": "Western blot of MAPK, AKT and NF-κB signaling in adult pig articular chondrocytes", "type": "cell-based", "conditions": "24 hours", "description": "FIGS. 30A-30B. […] (FIG. 30A) Adult pig articular chondrocytes were cultured for 24 hours with the indicated cytokines or RCGD 423 and the levels of pSTAT3 and MYC were measured with respect to histone H3. Representative data for other proteins in the MAPK (p38 and MEK1/2), AKT (phospho-AKT; pAKT) or NF-KB (NF-KB p65) are also shown. (FIG. 30B) Levels of transcription of genes indicative of a catabolic response were determined via quantitative PCR in adult pig articular chondrocytes treated with OSM, IL-6, TNF-α, LIF or RCGD 423. Data are represented at mean±SD.\nCartilage degeneration is generally considered a feed-forward process, in which small losses of chondrocytes result in microenvironmental changes including induction of an inflammatory response and other pro-catabolic events (Hunziker, 2002). In turn, these alterations in the joint milieu promote production of matrix degrading proteins including MMPs (collagenases) and proteins of the ADAMTS family (aggrecanases). LIF has been implicated in promoting this cycle of matrix destruction during the pathogenesis of osteoarthritis (Hui et al., 2000; Lotz et al., 1992), although its role in this process has been controversial. In order to better understand the mechanism of action of LIF, RCGD 423 and known pro-inflammatory cytokines in the promotion of degeneration, we stimulated adult pig articular chondrocytes with these molecules and quantitated the levels of activated downstream proteins that mediate the cellular signaling response (FIG. 30A).\nas §1"}, "pSTAT3 and MYC [3]": {"tested_on": "pSTAT3 and MYC", "test": "Western blot of pSTAT3 and MYC in human fetal articular chondrocytes", "type": "cell-based", "conditions": "72 hours", "excerpt": "Moreover, LIFR expression is localized to chondrocytes in the superficial zone of articular cartilage throughout ontogeny. In contrast, LIF expression is strongest during fetal development and then diminishes over time (Table S1). […] LIF signals through a heterodimeric receptor comprised of LIFR and gp130 (IL6RST); upon binding extracellular ligand, both receptors are phosphorylated and recruit members of the JAK family which in turn phosphorylate STAT3 (pSTAT3). pSTAT3 then enters the nucleus to act as a transcriptional regulator. […] We first performed ELISA on human fetal and adult synovial fluid to determine if LIF protein levels change over time. […] Western blot analysis of the downstream effectors of LIF signaling, pSTAT3 and MYC, further supported reduced levels of LIF signaling in adult articular cartilage (FIG. 26A). We then confirmed that adolescent and adult articular chondrocytes in the superficial zone express both receptors required for LIF signaling (FIG. 33) and that these cells are the most anabolic of adult chondrocytes (FIGS. 34A-34B). Because STAT3 and MYC can respond to a variety of stimuli, we next wanted to determine if the increased levels of pSTAT3 and MYC in fetal cells were a direct result of increased LIF/LIFR signaling.\nas §1"}}, "data": [{"molecule": "Cl.O=C(NNc1nc2cc(F)ccc2n2cccc12)c1cnccn1", "note": "[gp130 inhibitor, reference compound]", "values": [{"measurement": "ability of both LIF and RCGD 423 to induce increases in pSTAT3 and MYC", "setting": "pSTAT3 and MYC [1]", "value": "greatly reduced"}]}, {"molecule": "TGF-beta 1: morphogen", "values": [{"measurement": "expansion of cartilage tissue in explants", "setting": "cartilage explants", "value": "little or no effect"}]}, {"molecule": "C[C@@H]1CCN(C(=O)CC#N)C[C@@H]1N(C)c1ncnc2[nH]ccc12", "note": "[JAK inhibitor, reference compound]", "values": [{"measurement": "ability of both LIF and RCGD 423 to induce increases in pSTAT3 and MYC", "setting": "pSTAT3 and MYC [1]", "value": "greatly reduced"}]}, {"molecule": "GDF5: BMPR1B ligand (protein, UniProt P43026 382-501, looked up) Growth/differentiation factor …: APLATRQGKRPSKNLKARCSRKALHVNFKDMGWDDWIIAPLEYEAFHCEGLCEFPLRSHLEPTNHAVIQTLMNSMDPESTPPTCCVPTRLSPISILFIDSANNVVYKQYEDMVVESCGCR", "values": [{"measurement": "expansion of cartilage tissue in explants", "setting": "cartilage explants", "value": "little or no effect"}]}, {"molecule": "IL-la: inflammatory cytokine (protein, UniProt P01583 113-271, looked up) Interleukin-1 alpha: SAPFSFLSNVKYNFMRIIKYEFILNDALNQSIIRANDQYLTAAALHNLDEAVKFDMGAYKSSKDDAKITVILRISKTQLYVTAQDEDQPVLLKEMPEIPKTITGSETNLLFFWETHGTKNYFTSVAHPNLFIATKQDYWVCLAGGPPSITDFQILENQA", "values": [{"measurement": "levels of MYC", "setting": "pSTAT3 and MYC [1]", "value": "inhibit accumulation"}, {"measurement": "levels of pSTAT3", "setting": "pSTAT3 and MYC [1]", "value": "inhibit accumulation"}]}, {"molecule": "OSM: IL-6 family cytokine oncostatin M (protein, UniProt P13725 26-221, looked up) Oncostatin-M: AAIGSCSKEYRVLLGQLQKQTDLMQDTSRLLDPYIRIQGLDVPKLREHCRERPGAFPSEETLRGLGRRGFLQTLNATLGCVLHRLADLEQRLPKAQDLERSGLNIEDLEKLQMARPNILGLRNNIYCMAQLLDNSDTAEPTKAGRGASQPPTPTPASDAFQRKLEGCRFLHGYHRFMHSVGRVFSKWGESPNRSRR", "values": [{"measurement": "pro-inflammatory response", "setting": "[2]", "value": "strong pro-inflammatory response"}, {"measurement": "levels of MYC", "setting": "pSTAT3 and MYC [1]", "value": "does not elicit any upregulation"}, {"measurement": "levels of pSTAT3", "setting": "pSTAT3 and MYC [1]", "value": "does not elicit any upregulation"}]}, {"molecule": "BMP4: driver of chondrocyte hypertrophy (protein, UniProt P12644 293-408, looked up) Bone morphogenetic protein 4: SPKHHSQRARKKNKNCRRHSLYVDFSDVGWNDWIVAPPGYQAFYCHGDCPFPLADHLNSTNHAIVQTLVNSVNSSIPKACCVPTELSAISMLYLDEYDKVVLKNYQEMVVEGCGCR", "values": [{"measurement": "expansion of cartilage tissue in explants", "setting": "cartilage explants", "value": "little or no effect"}]}, {"molecule": "sLIFR: soluble LIFR, which binds and sequesters LIF (protein, UniProt P42702 45-833, looked up, extracellular domain) extracellular domain: QKKGAPHDLKCVTNNLQVWNCSWKAPSGTGRGTDYEVCIENRSRSCYQLEKTSIKIPALSHGDYEITINSLHDFGSSTSKFTLNEQNVSLIPDTPEILNLSADFSTSTLYLKWNDRGSVFPHRSNVIWEIKVLRKESMELVKLVTHNTTLNGKDTLHHWSWASDMPLECAIHFVEIRCYIDNLHFSGLEEWSDWSPVKNISWIPDSQTKVFPQDKVILVGSDITFCCVSQEKVLSALIGHTNCPLIHLDGENVAIKIRNISVSASSGTNVVFTTEDNIFGTVIFAGYPPDTPQQLNCETHDLKEIICSWNPGRVTALVGPRATSYTLVESFSGKYVRLKRAEAPTNESYQLLFQMLPNQEIYNFTLNAHNPLGRSQSTILVNITEKVYPHTPTSFKVKDINSTAVKLSWHLPGNFAKINFLCEIEIKKSNSVQEQRNVTIKGVENSSYLVALDKLNPYTLYTFRIRCSTETFWKWSKWSNKKQHLTTEASPSKGPDTWREWSSDGKNLIIYWKPLPINEANGKILSYNVSCSSDEETQSLSEIPDPQHKAEIRLDKNDYIISVVAKNSVGSSPPSKIASMEIPNDDLKIEQVVGMGKGILLTWHYDPNMTCDYVIKWCNSSRSEPCLMDWRKVPSNSTETVIESDEFRPGIRYNFFLYGCRNQGYQLLRSMIGYIEELAPIVAPNFTVEDTSADSILVKWEDIPVEELRGFLRGYLFYFGKGERDTSKMRVLESGRSDIKVKNITDISQKTLRIADLQGKTSYHLVLRAYTDGGVGPEKSMYVVTKENS", "values": [{"measurement": "levels of MYC", "setting": "pSTAT3 and MYC [3]", "value": "substantially reduced"}, {"measurement": "levels of pSTAT3", "setting": "pSTAT3 and MYC [3]", "value": "substantially reduced"}, {"measurement": "levels of MYC", "setting": "pSTAT3 and MYC [3]; listed as LIFR", "value": "reduces"}, {"measurement": "levels of pSTAT3", "setting": "pSTAT3 and MYC [3]; listed as LIFR", "value": "reduces"}, {"measurement": "levels of MYC", "setting": "pSTAT3 and MYC [3]; listed as soluble LIF receptor", "value": "reduces"}, {"measurement": "levels of pSTAT3", "setting": "pSTAT3 and MYC [3]; listed as soluble LIF receptor", "value": "reduces"}]}]}
